The series can be described thus: soluble on expression in E. coli; label from the status in PepcDB or PDB records.
Take “MSERDAIRAFSHMLETIFVRMRAEGTGSQTDAMQRWLDLYNVGSLPIDKKSYKALRLMDRETTDQQKEDATCAICLDNLQNNVDIPEDHVIKEELKIDPTTFGTTVIVMPCKHRFHYFCLTLWLEAQQTCPTCRQKVKTDKEVEEEERQRNLEELHDSMYG”: the “soluble on expression in E. coli” value is “not soluble”. With “MYKINDFEIMAPVGSRESLAAAIQAGADSIYFGIENLNMRARSANTFTIEDLREIARTCDEHGMKSYLTVNTIIYDKDIELMRTIVDAAKEAGISAVIAADVAVMSYANKIGQEVHLSTQLNISNAEALKFYAQFADVVVLARELNLEQVAEIYRQIQEEHICGPSGELIRIEMFCHGALCMAVSGKCYLSLHEMNHSANRGACMQICRRAYTVRDKDTDVELEVDNQYIMSPKDLKTIHFMNKMIDAGVRVFKIEGRARGPEYVRTVVECYKQAIRAYLDDSFTDEKIAAWDERLKTVFNRGFWDGYYLGQRLGEWTKNYGSAATERKIYVGKGIKYFSNIGVAEFLVEAAEVSVGDKLLITGPTTGAVFATLDEARVDLKPVETVKKGEHFSMKLDKIRPSDKLYKLVSTEELKKFKGL”, the “soluble on expression in E. coli” value is given as “not soluble”. In the case of “MGSDKIHHHHHHMPQTAFIWDLDGTLIDSYEAIMEALAVTYRTFGFDFQAEPIRRYIIKESVGKLLDILAKQHGLSSEELKTFFIQEQVKRDDKIKLMPFAKEALQWAKDRGIKQFMYTHKGASTGAVLAELGIVSYFTEILTSVSGFERKPHPQGIFYLLEKYHLDRDRTYYIGDRRLDVEVAENAGIKSINLAQPQSAANQKIDNLQVLTQLKDF”, the “soluble on expression in E. coli” value is given as “not soluble”.

Turning to “MPILQELRLGKRISRDISLADLYQEWIELKILPSSRSEETKKKYLLRKNTIERLFGNKKVTQIRASEYQRIMNKYGQTVGRNFLGRLNTGIHQSIQMAIADKVLIDDFTQHVELFSSKEQQMTLEHHHHHH”, the “soluble on expression in E. coli” value is reported as “not soluble”. For “MVQLSLSQVHQDQIYRHGERCYPEECCGLLLGKILIGENGHRHWQVVEVQPTENCWGDVEEFQQNNHQGNKLHYFAIDPKVLLSAQKDCRQKGLSIIGIFHSHPHGQPIPSEFDRAIAWPEYIYLIASGLEHHHHHH”, the “soluble on expression in E. coli” value is reported as “not soluble”.

In the case of “HNITRPIRSMSSTCREINKNKGNYRSYRFESVKRKDEIGQLAVTFESLLRNMDNYTKMEYTSKMSATLAHEIKNPIAGIRSGIQLLKGRAAKESDKMLCESMIKEVDRVTTLIMNLFTLSVKKESPKELISFEKVIGEIAMIYSKGAEGQGVVMETAVEEGLTGYLNENEFRQIAHNLISNSIKSVIPGIEGRIRISGRESGNKALIEFQDNGKGMSREELTRAMEPFYTKSINGIGIGLAIVKKLVEQNGGLMEMASACGEGTCVRLTFYRRVEDYEENISRG”, the “soluble on expression in E. coli” value is recorded as “not soluble”. Consider “MGSDKIHHHHHHMDTKQLKQDIIDYAYTIGIDSIGFTTADPFDELKQKLEAYHANGYASGFEESDIALRTEPKLSLPTARSIIAIAVGYPNKLKGAPKSVRGDRRGLFARASWGQDYHTIMRKRLDMLAAFIESKVPDVEIKSMVDTGVLSDRAVAERAGLGFVGRNGFVINPKLGTWTYLGEMLVSIPFEPDDPLLDSCGDCTICVDRCPTSALVGNGQLNSQKCISFLTQTKGYMPDQYRYKIGNRLYGCDTCQQVCPKNRGINTEQDDIILEPEILKPRLVPLLRMSNKEFKQTYGHLAGAWRGKKPIQRNAILALAHFNEVDAIPELKKVATTDERPMIRATAYWAIGQILGEEARDFINANYDQEDAEVQNEMIKGLDTRRE”, for which the “soluble on expression in E. coli” value is given as “not soluble”.

Take “GPPQMSATNEDLKTNFHSLHNQMRQMPMSHFREALDAPDYSGMRQSGFFAMSQGFQLESHGGDVFMHAHRENPQCKGDFAGDKFHISVQREQVPQAFQALSGLLFSVDSPIDKWKVTDMERVDQQSRVAVGAQFTLYVKPDQENSQYSASSLHNTRQFIECLESRLSESGLMPGQYPESDVHPENWKYVSYRNELRSGRDGGEMQSQALREEPFYRLMAE”: the “soluble on expression in E. coli” value was “soluble”.

In the case of “MGQGANILGFGGDRSFNLAGNRAGFALGSNNGALVGGQRVGVDGGIGGGREGVEMGSQVQFGNEPNPGHPAGQFGSFMDNVKNFFSFLGRGMPMPPQQPPPSPPFSLGVTRPPTLIGTERSESENGGRHRPRPWFPEGEQIPEVTGEMRPKEGEAGISSSSSSSSETEFIGPNNGEIPRKSVEFSIDKEPREEFTEDLFTAQTSRPRELPGLIEFA”, the “soluble on expression in E. coli” value was “not soluble”. The entry for “MLSSSGHAIRRGITTSAALSNKHAFIVGAARTPIGSFRSSLSSVTAPELASVAIKAALERGAVKPSSIQEVFLGQVCQANAGQAPARQAALGAGLDLSVAVTTVNKVCSSGLKAIILAAQQIQTGHQDFAIGGGMESMSQVPFYVQRGEIPYGGFQVIDGIVKDGLTDAYDKVHMGNCGEKTSKEMGITRKDQDEYAINSYKKSAKAWENGNIGPEVVPVNVKSKKGVTIVDKDEEFTKVNFDKFTSLRTVFQKDGTITAANASTLNDGAAAVIVASQEAVSEQSLKPLARILAYGDAATHPLDFAVAPTLMFPKILERAGVKQSDVAQWEVNEAFSCVPLAFIKKLGVDPSLVNPHGGAVSIGHPIGMSGARLITHLVHTLKSGQIGVAAICNGGGGSSGMVIQKL” is “not soluble”; for “MIRIGHGFDVHRFGGEGPIIIGGVKIPYEQGLIAHSDGDVALHALSDALLGAIAAGDIGRHFPDTDDKWKGADSRELLKDVYRRVKAQGYVLGNADVTIIAQAPKMAPYIQAMCAAIAEDLETDLGNINVKATTTEKLGFTGRKEGIACEAVVLLRKA” it is “not soluble”; for “MSLVLSAGRLNKNSLGIAVLLCTGLLLAGCSSNSGSGTYSGSVYTVKRGDTLYRISRATGTSVKELARLNGISPPYTIEVGQRIKVRGSAKSSTSTRKTSNKTATKTAAVRPSSSVPKSSWPPVGQRCWVWPANGKVILPYSTAEGGNKGIDIAGARGTPVYAAGAGKVVYVGNQLRGYGNLIMIKHNEDYITAYAHNDTMLVNNGQSVKAGQKIATMGSTDAASVRLHFQIRYRATAIDPLRYLPPQGSKPKCEGHHHHHH” it is “not soluble”. As to “MFNYSTKDANLSNKTILVTGAGAGIGRTAALTYAQLGATVILLGKTVSKLEAVYDEIVALGLAEPAIIPLDLKGATKQNYIDMSSTISSQFGHLDGVLLNASILGELTPFTQMHEQVFNDVMKVNVTAQCLLAQTLIPTLLLAPNASLVFTSSGVGSQGRAYWGQYSISKFATEGMMQVIADEYEGSNLRTNAINPGATNTNMRSCAFPAEDKDELATPEDIMPLYVYLMSDDSLEINGQTLKAQ”, the “soluble on expression in E. coli” value was “not soluble”. “MKNVEEQAEREIALSDEMVLQFLQQNPDFFIRNARPVEQMRVPHPVRGTVSLVEWQLARQRNHITQLEEEITLLMEQAGANEVLFNRLLGLQTELASAESLTDMLDRLQRWARQLGLAGAAVRLFSDKWRIGAPSDFTHLGLNRSSFEPLRIQRFGQHNHYLGSLNGPELLLLLPQARQVGSVALSLMGNHHDLGVLIFSSRDSHHYQNGMGTVLLQQMAMMLPAMLARWVERVLEHHHHHH”: the “soluble on expression in E. coli” value is “not soluble”. The same measure for “MRLSDYNTPLSGMLAAQMGLQTTKQNLSNIHTPGYVRQMVNYESAGGSKGYAPEQRIGYGVQTLGVDRITDEVKTKQYNDQMSQFSYYAYMNSTLSRVESMVGTTGKNSLSSLMDGFFNAFREVAKNPEQSNYYDTLIAETGKFTSQVSRLAKNLDTVEAQTTEDIEAHVNEFNRLAASLAEANKKIGQAGTQVPNQLLDERDRIMTEMSKYADIEVSYEATNPNIASVRMNGVLTVNGQDTYPLQLQKDKKPMSVQISGTDIPLSGGTILSAIDTKAKITNYKDNLNEFVNSLKKQVNNTMKKELFVGEDAKKLELNPDFIKDISKMKISAETANNLAAITDKGYKDGLTYKQALDQFLVGVASDKSSVNAYQNIHKDLLEGIQQEKMSIEGVNMEEEMVNLMAFQKYFVANSKAITTMNEVFDSLFSIIR”: “not soluble”; for “MGSSHHHHHHSSGLVPRGSHMAAMMSLNDFLSSVLPVSEQFEYLSLQSIPLETHAVVTPNKDDKRVPKSTIKTQHFFSLFHQGKVFFSLEVYVYVTLWDEADAERLIFVSKADTNGYCNTRVSVRDITKIILEFILSIDPNYYLQKVKPAIRSYKKISPELISAASTPARTLRILARRLKQSGSTVLKEIESPRFQQDLYLSFTCPREILTKICLFTRPASQYLFPDSSKNSKKHILNGEELMKWWGFILDRLLIECFQNDTQAKLRIPGEDPARVRSYLRGMKYPLWQVGDIFTSKENSLAVYNIPLFPDDPKARFIHQLAEEDRLLKVSLSSFWIELQERQEFKLSVTSSVMGISGYSLATPSLFPSSADVIVPKSRKQFRAIKKYITGEEYDTEEGAIEAFTNIRDFLLLRMATNLQSLTGKREHRERNQPVPASNINTLAITMLKPRKKAKALPKT”: “soluble”; for “MSLSELHALLTFPERPISQSYYVPKLQHFLKSGIPATYTLEQVAAFEHEEKNRNGDKEFRESTDDNKTSNTTPLHVLARSLPLDIKDEELQVVMDMMNILFEYGAGWNFIDYEDKTVGDLFLERNQSRESPLYRRLVEAGVSAELLLRKLNGGDVEFLDTDELIGIEPEESVQTAVDGQKEESVGSDDDATAANQQVYLKTELEYKDDALITKENKDGVMMDWETKIMELASETLFPDPEATNSATILNIGFGMGIIDTFIQARKPYRHYICEAHPDVLAKMKMDGWYEKDNVVILEGRWQDTLNNLLDKGEVFFDGIYYDTFSEHYQDILDLYDVVVGLIKPEGVFSFFNGLGADRSLCYDVYKEIVEIDVATYGMKCDYTRYSLDEQLPDWNDVKRSYFNCNYYYHPRITFAEGHHHHHH”: “not soluble”. Regarding “MSLTAERQERLLARVEDAFGVISVYEVDDYRFLEFGDAIEQSCVFTADPSWLEYDYTRAMLVGALCHESPESALFLGLGAGTLTQACMKFLPLEDIEAIELRPDVPRLAMDYLGLDDDPRLYVRIGDALELLPTAEKADLLFVDLYTDHGPGVGHLAWNFLENCQQHLNPGGWLVINQWATDDGRPLGAALLRGLYHRHYWELPVKEGNVILLVPADLEQSLDLDGLRARAEALAPRLGYSLDGLIREIRPATEGHHHHHH”, the “soluble on expression in E. coli” value was “soluble”. As for “MAKSFNQAASELTDIFPNISLTGFDGVNYPVTVNCPMHGNVRYSTFNALIKSKYGCPECAKMSKTQTPPNVGKPLLILDTTTNETLTFPSVTAAGAALGVHFQQINHRLKGRTSPDNLISNRYKVLGYDR”, the “soluble on expression in E. coli” value is listed as “not soluble”. “MSLDNIERTLGQLFEGRDFEKEYQGLKQQVLHYQPIQDFFKEHKEEVTEQLVNQNLSNLYEFMTQHKKFTEQEETLMPGYAPKLVLNGEFITVTYYPTKEKIEEDKRRAVERRIRSLYMPKQVVDANLADFYTDEESRQLALVEAYQFLNNYPPKSGERVKGLFIHGSFGTGKSYLLGALAKELALKGISSTLVYLPEFMREVKQSISDNTVGEKIQFAKETEVLMLDDIGAESMTAWTRDEVLGAILQFRMQEELPTFFSSNYNMDQLENHLMFAQNGTEEKLKARRIMERVRYLSKEVNLEGEGHHHHHH”: the “soluble on expression in E. coli” value is listed as “soluble”. On to “MGSDKIHHHHHHMNKYNQLGSVRYNQLGRIKYNSRGAREVKPLFNRLAQARPVILDQNRRRLAILENADNIILEQEINGIDQVTFTLPWKDEKRKYLVNENLVQLVNSIYIIRRVSVKRSGLSPAEIEVYAEALWYDLQFAEPVEHARWESATPEVIMKDILDGTGWRVGKVTITRERTLELEAGFTNRLKALYELPSLFGGELHFNTDTMTVDFTEPVGRKSGAAIAYSKNLEEVEAIYDTEELVTKLYLYGKNNMSIADANDGVPYLTDFSFTDKVRVRVTKDERFTNPYHLKERGEEALKVLARPRSSYVLRAADLSALSGMSHEEFFLGDEVLVYDKELGINVRTRIVSWKYNVIQPWNTELQLESKQPSLSDLLTGIQEGAEFLYSEDAVERDEMLNLHVFNYLMNSRGDDGFNYWTNDGWELDAENGYSGNASFRATAQPGVKKSLRQTIYPAHRDSYSLSLRVATENLRVGNGRVGVYVKFKYQDGTEEEPIWIPLSEDE”, for which the “soluble on expression in E. coli” value was “not soluble”.

Values taken from the DeepSol protein solubility set.
